B1: WIF1 (Wnt Inhibitory Factor 1): T255A (protein)
parent chain: MARRRAFPAFALRLWSILPCLLLLRADAGQPPEESLYLWIDAHQARVLIGFEEDILIVSEGKMAPFTHDFRKAQQRMPAIPVNIHSMNFTWQAAGQAEYFYEFLSLRSLDKGIMADPTVNVPLLGTVPHKASVVQVGFPCLGKQDGVAAFEVNVIVMNSEGNTILRTPQNAIFFKTCQQAECPGGCRNGGFCNERRVCECPDGFYGPHCEKALCIPRCMNGGLCVTPGFCICPPGFYGVNCDKANCSTTCFNGGTCFYPGKCICPPGLEGEQCELSKCPQPCRNGGKCIGKSKCKCPKGYQGDLCSKPVCEPGCGAHGTCHEPNKCQCREGWHGRHCNKRYGASLMHAPRPAGAGLERHTPSLKKAEDRRDPPESNYIW
B2: WIF1 (Wnt Inhibitory Factor 1): T255/319A (protein)
parent chain: MARRRAFPAFALRLWSILPCLLLLRADAGQPPEESLYLWIDAHQARVLIGFEEDILIVSEGKMAPFTHDFRKAQQRMPAIPVNIHSMNFTWQAAGQAEYFYEFLSLRSLDKGIMADPTVNVPLLGTVPHKASVVQVGFPCLGKQDGVAAFEVNVIVMNSEGNTILRTPQNAIFFKTCQQAECPGGCRNGGFCNERRVCECPDGFYGPHCEKALCIPRCMNGGLCVTPGFCICPPGFYGVNCDKANCSTTCFNGGTCFYPGKCICPPGLEGEQCELSKCPQPCRNGGKCIGKSKCKCPKGYQGDLCSKPVCEPGCGAHGTCHEPNKCQCREGWHGRHCNKRYGASLMHAPRPAGAGLERHTPSLKKAEDRRDPPESNYIW

Legend:
[1] = anti-V5 Western blot of CHO conditioned media; conditions: glycan lost; control: WT WIF1-V5-His
[2] = anti-V5 Western blot of CHO cell lysates, GAPDH-normalised; conditions: glycan lost; control: WT WIF1-V5-His

Row | Protein | expression_or_secretion, percent_of_wt [1] | localisation_or_trafficking [2]
1 | B1 | decreases, decrease of more than 50% vs 100 | increases
2 | B2 | decreases, decrease of more than 50% vs 100 | increases
